{
  "source": "the RNAGym collection of RNA variant scans (doi:10.1073/pnas.2313332121)",
  "parents": {"B1": {"name": "TPR 5TU (parent)", "chain": "GGAUCUUCUCGAUCUAACAAAAAAGACAAAUCUGCCACAAAGCUUGAGAGCAUCUUCGGAUGCAGAGGCGGCAGCCUUCGGUGGCGCGAUAGCGCCAACGUUCUCAACUAUGACACGCAAAACGCGUGCUCCGUUGAAUGGAGUUUAUCAUG"}},
  "note": "Fewer inactive variants are shown than the library holds.",
  "data": [
    {"variants_of": "B1", "assay": "polymerase ribozyme fitness, log enrichment relative to wild type (log ratio); higher = more active; in vitro selection for triplet polymerase activity", "method_in_brief": "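PCR was used to build mutant libraries for each subunit of a heterodimeric triplet polymerase ribozyme, which were then transcribed. A single in vitro selection round, in triplicate, used a frozen incubation at −7 °C and recovered extended constructs by gel excision, streptavidin beads and RT-PCR. Fitness is the logarithm of genotype enrichment relative to wild-type enrichment, averaged over replicates with inverse-variance weights. The logarithm is base 2, and after Illumina sequencing only genotypes with ≥10 input reads and ≥1 read per output were kept.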", "values": [
      {"variant": "C63U A150U", "polymerase ribozyme fitness (log ratio)": 0.854},
      {"variant": "G59A C76G", "polymerase ribozyme fitness (log ratio)": "≤ -4.2"},
      {"variant": "G58C C76G U77G", "polymerase ribozyme fitness (log ratio)": "≤ -4.2"},
      {"variant": "A60U C87U U135C", "polymerase ribozyme fitness (log ratio)": -3.65},
      {"variant": "A60U C96G", "polymerase ribozyme fitness (log ratio)": -3.34},
      {"variant": "A60G C96U", "polymerase ribozyme fitness (log ratio)": 0.674},
      {"variant": "U61G G94A C108G", "polymerase ribozyme fitness (log ratio)": "≤ -4.2"},
      {"variant": "A60G A91G", "polymerase ribozyme fitness (log ratio)": -2.73},
      {"variant": "G59C C76A C87G", "polymerase ribozyme fitness (log ratio)": "≤ -4.2"},
      {"variant": "U61A G117A", "polymerase ribozyme fitness (log ratio)": -0.98},
      {"variant": "U61A C103G A115U", "polymerase ribozyme fitness (log ratio)": "≤ -4.2"},
      {"variant": "G59A C85U C149G", "polymerase ribozyme fitness (log ratio)": -3.59},
      {"variant": "G59A G133U G136C U148C", "polymerase ribozyme fitness (log ratio)": "≤ -4.2"},
      {"variant": "C63U A73G", "polymerase ribozyme fitness (log ratio)": -0.225},
      {"variant": "A60C C96U A142C G143A", "polymerase ribozyme fitness (log ratio)": "≤ -4.2"},
      {"variant": "G62U U109C C116U C131U A147U", "polymerase ribozyme fitness (log ratio)": -1.94},
      {"variant": "A60G C93U U104G G143C", "polymerase ribozyme fitness (log ratio)": -3.09},
      {"variant": "G59C A138G", "polymerase ribozyme fitness (log ratio)": -3.04},
      {"variant": "A60U C85G A89U", "polymerase ribozyme fitness (log ratio)": "≤ -4.2"},
      {"variant": "U61G C93U G94A U144G", "polymerase ribozyme fitness (log ratio)": "≤ -4.2"},
      {"variant": "A60C G92U A97G", "polymerase ribozyme fitness (log ratio)": -2.29},
      {"variant": "G59U C93A", "polymerase ribozyme fitness (log ratio)": -3.58},
      {"variant": "G59A A60C U61A G81A C103G", "polymerase ribozyme fitness (log ratio)": "≤ -4.2"},
      {"variant": "G62C G84A C125G G128A", "polymerase ribozyme fitness (log ratio)": "≤ -4.2"},
      {"variant": "G62A G84A U135A", "polymerase ribozyme fitness (log ratio)": -1.93},
      {"variant": "U61A G92C", "polymerase ribozyme fitness (log ratio)": -3.57},
      {"variant": "A60C C93A A98U A122C", "polymerase ribozyme fitness (log ratio)": -2.61},
      {"variant": "A60G C87A U109A C132G", "polymerase ribozyme fitness (log ratio)": "≤ -4.2"},
      {"variant": "G58C C72U A98G", "polymerase ribozyme fitness (log ratio)": 0.461},
      {"variant": "C63U G68A G83C A115C U144C C149A", "polymerase ribozyme fitness (log ratio)": "≤ -4.2"},
      {"variant": "A60C G92U", "polymerase ribozyme fitness (log ratio)": -0.296},
      {"variant": "G59A A60C G126A", "polymerase ribozyme fitness (log ratio)": -0.62},
      {"variant": "G62C A137C U148G", "polymerase ribozyme fitness (log ratio)": "≤ -4.2"},
      {"variant": "G62C G143U", "polymerase ribozyme fitness (log ratio)": -3.58},
      {"variant": "G65C C85U", "polymerase ribozyme fitness (log ratio)": -4.04},
      {"variant": "U61C G70A", "polymerase ribozyme fitness (log ratio)": -4.13},
      {"variant": "G58U C95U", "polymerase ribozyme fitness (log ratio)": -0.414},
      {"variant": "U61G C116A", "polymerase ribozyme fitness (log ratio)": -0.386},
      {"variant": "G59A A122G U148C", "polymerase ribozyme fitness (log ratio)": -3},
      {"variant": "G59A A60C C79G G81A U101G C132A U146A", "polymerase ribozyme fitness (log ratio)": "≤ -4.2"},
      {"variant": "G62A C93A", "polymerase ribozyme fitness (log ratio)": -1.93},
      {"variant": "A60U C85G G92C U102G", "polymerase ribozyme fitness (log ratio)": "≤ -4.2"},
      {"variant": "G59C G83A C103U A122G", "polymerase ribozyme fitness (log ratio)": -0.809},
      {"variant": "U61A A107C C114U G140U", "polymerase ribozyme fitness (log ratio)": "≤ -4.2"},
      {"variant": "G59C G65C C76G U145G C149A", "polymerase ribozyme fitness (log ratio)": "≤ -4.2"},
      {"variant": "C63G C72U C93U", "polymerase ribozyme fitness (log ratio)": -0.337},
      {"variant": "A60G G94A C103A G140C", "polymerase ribozyme fitness (log ratio)": "≤ -4.2"},
      {"variant": "G59A C85G C99U A120G", "polymerase ribozyme fitness (log ratio)": "≤ -4.2"},
      {"variant": "G59U A60U", "polymerase ribozyme fitness (log ratio)": -0.703},
      {"variant": "G62U C95A", "polymerase ribozyme fitness (log ratio)": -1.1},
      {"variant": "G59A G94A", "polymerase ribozyme fitness (log ratio)": -0.522},
      {"variant": "U61A C95A", "polymerase ribozyme fitness (log ratio)": -1.41},
      {"variant": "G59C U61A A64C", "polymerase ribozyme fitness (log ratio)": "≤ -4.2"},
      {"variant": "A60C C76U G80C G117U C123A", "polymerase ribozyme fitness (log ratio)": "≤ -4.2"},
      {"variant": "C63U C75A G84A C118G A120G", "polymerase ribozyme fitness (log ratio)": "≤ -4.2"},
      {"variant": "A60C A91U", "polymerase ribozyme fitness (log ratio)": "≤ -4.2"},
      {"variant": "G59U A64G A89G A107C", "polymerase ribozyme fitness (log ratio)": "≤ -4.2"},
      {"variant": "G59A A142G", "polymerase ribozyme fitness (log ratio)": -0.65},
      {"variant": "U61A C76A C87U", "polymerase ribozyme fitness (log ratio)": -3.68},
      {"variant": "A60C U101G", "polymerase ribozyme fitness (log ratio)": -1.58},
      {"variant": "U61G G62A C87U", "polymerase ribozyme fitness (log ratio)": -1.28},
      {"variant": "G59C G126C", "polymerase ribozyme fitness (log ratio)": 0.783},
      {"variant": "G58C C85A", "polymerase ribozyme fitness (log ratio)": -3.71},
      {"variant": "G59C C103U", "polymerase ribozyme fitness (log ratio)": 0.229},
      {"variant": "A60G G100A U151G", "polymerase ribozyme fitness (log ratio)": "≤ -4.2"},
      {"variant": "G58C G68A", "polymerase ribozyme fitness (log ratio)": -3.97},
      {"variant": "G58U C76A", "polymerase ribozyme fitness (log ratio)": 0.0806},
      {"variant": "G59C C87A U101C G141U A147U", "polymerase ribozyme fitness (log ratio)": "≤ -4.2"},
      {"variant": "U61A C108U", "polymerase ribozyme fitness (log ratio)": -3.86},
      {"variant": "A60G A119C A120U U151C", "polymerase ribozyme fitness (log ratio)": -4.18},
      {"variant": "G59U A66G A91G G100U U134A G143A A147G A150C", "polymerase ribozyme fitness (log ratio)": "≤ -4.2"},
      {"variant": "G59A U127A", "polymerase ribozyme fitness (log ratio)": -3.81},
      {"variant": "A60G A89C U104G C108G", "polymerase ribozyme fitness (log ratio)": "≤ -4.2"},
      {"variant": "A60G C116A", "polymerase ribozyme fitness (log ratio)": 1.26},
      {"variant": "G59C C69U C93G G100A G124U", "polymerase ribozyme fitness (log ratio)": "≤ -4.2"},
      {"variant": "G58U G92A", "polymerase ribozyme fitness (log ratio)": -2.51},
      {"variant": "G58U G59U U82A G84A A115U G143A", "polymerase ribozyme fitness (log ratio)": "≤ -4.2"},
      {"variant": "G58C G59A C85U G133C", "polymerase ribozyme fitness (log ratio)": -1.29},
      {"variant": "G59U G67A G92U", "polymerase ribozyme fitness (log ratio)": -3.83},
      {"variant": "G58C G140C", "polymerase ribozyme fitness (log ratio)": -4.02},
      {"variant": "G59U C96U A121C G126A U146G", "polymerase ribozyme fitness (log ratio)": -2.76},
      {"variant": "G59A G84A", "polymerase ribozyme fitness (log ratio)": -2.24},
      {"variant": "U61A A73G G94U", "polymerase ribozyme fitness (log ratio)": -3}
    ]}
  ]
}
